B1: Speckle-type POZ protein (Homo sapiens), O43791 (parent)
chain: MSRVPSPPPPAEMSSGPVAESWCYTQIKVVKFSYMWTINNFSFCREEMGEVIKSSTFSSGANDKLKWCLRVNPKGLDEESKDYLSLYLLLVSCPKSEVRAKFKFSILNAKGEETKAMESQRAYRFVQGKDWGFKKFIRRDFLLDEANGLLPDDKLTLFCEVSVVQDSVNISGQNTMNMVKVPECRLADELGGLWENSRFTDCCLCVAGQEFQAHKAILAARSPVFSAMFEHEMEESKKNRVEINDVEPEVFKEMMCFIYTGKAPNLDKMADDLLAAADKYALERLKVMCEDALCSNLSVENAAEILILADLHSADQLKTQAVDFINYHASDVLETSGWKSMVVSHPHLVAEAYRSLASAQCPFLGPPRKRLKQS

Variants of: B1
Settings: with brd4_human BRD4, O60885

effect of a mutation on the interaction	Variant
disrupting interaction strength	F133V

Variants of: B1
Settings: with ncoa3_human NCOA3, Q9Y6Q9

effect of a mutation on the interaction	Variant
disrupting interaction strength	F133V

Variants of: B1
Settings: with jun_human JUN

effect of a mutation on the interaction	Variant
with no effect	F133V

Variants of: B1
Settings: with akt1_human AKT1, P31749

effect of a mutation on the interaction	Variant
with no effect	F133V

Variants of: B1
Settings: with alk_human ALK

effect of a mutation on the interaction	Variant
with no effect	F133V

Variants of: B1
Settings: with aph1a_human APH1A

effect of a mutation on the interaction	Variant
with no effect	F133V

Variants of: B1
Settings: with arnt_human ARNT

effect of a mutation on the interaction	Variant
with no effect	F133V

Variants of: B1
Settings: with asxl2_human ASXL2, Q76L83

effect of a mutation on the interaction	Variant
with no effect	F133V

Variants of: B1
Settings: with bakor_human ATG14, Q6ZNE5

effect of a mutation on the interaction	Variant
with no effect	F133V

Variants of: B1
Settings: with atm_human ATM

effect of a mutation on the interaction	Variant
with no effect	F133V

Variants of: B1
Settings: with atpb_human ATP5F1B

effect of a mutation on the interaction	Variant
with no effect	F133V

Variants of: B1
Settings: with aurkb_human AURKB

effect of a mutation on the interaction	Variant
with no effect	F133V

Variants of: B1
Settings: with axin2_human AXIN2, Q9Y2T1

effect of a mutation on the interaction	Variant
with no effect	F133V

Variants of: B1
Settings: with ufo_human AXL

effect of a mutation on the interaction	Variant
with no effect	F133V

Variants of: B1
Settings: with za2g_human AZGP1, P25311

effect of a mutation on the interaction	Variant
with no effect	F133V

Variants of: B1
Settings: with b2mg_human B2M

effect of a mutation on the interaction	Variant
with no effect	F133V

Variants of: B1
Settings: with bap1_human BAP1, Q92560

effect of a mutation on the interaction	Variant
with no effect	F133V

Variants of: B1
Settings: with bcor_human BCOR

effect of a mutation on the interaction	Variant
with no effect	F133V

Variants of: B1
Settings: with birc2_human BIRC2, Q13490

effect of a mutation on the interaction	Variant
with no effect	F133V

Variants of: B1
Settings: with brd4_human BRD4, O60885
Remark: another data set of the same source

effect of a mutation on the interaction	Variant
with no effect	F133V

Variants of: B1
Settings: with baba2_human BABAM2, Q9NXR7

effect of a mutation on the interaction	Variant
with no effect	F133V

Variants of: B1
Settings: with btg1_human BTG1, P62324

effect of a mutation on the interaction	Variant
with no effect	F133V

Variants of: B1
Settings: with btk_human BTK

effect of a mutation on the interaction	Variant
with no effect	F133V

Variants of: B1
Settings: with ccnd1_human CCND1, P24385

effect of a mutation on the interaction	Variant
with no effect	F133V

Variants of: B1
Settings: with ccnd2_human CCND2, P30279

effect of a mutation on the interaction	Variant
with no effect	F133V

Variants of: B1
Settings: with ccnd3_human CCND3, P30281

effect of a mutation on the interaction	Variant
with no effect	F133V

Variants of: B1
Settings: with cd44_human CD44, P16070

effect of a mutation on the interaction	Variant
with no effect	F133V

Variants of: B1
Settings: with cd79b_human CD79B

effect of a mutation on the interaction	Variant
with no effect	F133V

Variants of: B1
Settings: with cdc73_human CDC73, Q6P1J9

effect of a mutation on the interaction	Variant
with no effect	F133V

Variants of: B1
Settings: with cdk4_human CDK4, P11802

effect of a mutation on the interaction	Variant
with no effect	F133V

Variants of: B1
Settings: with cdk6_human CDK6, Q00534

effect of a mutation on the interaction	Variant
with no effect	F133V

Variants of: B1
Settings: with cdn2c_human CDKN2C

effect of a mutation on the interaction	Variant
with no effect	F133V

Variants of: B1
Settings: with chd1l_human CHD1L

effect of a mutation on the interaction	Variant
with no effect	F133V

Variants of: B1
Settings: with chd2_human CHD2, O14647

effect of a mutation on the interaction	Variant
with no effect	F133V

Variants of: B1
Settings: with ch3l1_human CHI3L1, P36222

effect of a mutation on the interaction	Variant
with no effect	F133V

Variants of: B1
Settings: with cul3_human CUL3, Q13618

effect of a mutation on the interaction	Variant
with no effect	F133V

Variants of: B1
Settings: with cul4b_human CUL4B

effect of a mutation on the interaction	Variant
with no effect	F133V

Variants of: B1
Settings: with daxx_human DAXX

effect of a mutation on the interaction	Variant
with no effect	F133V

Variants of: B1
Settings: with ddx5_human DDX5, P17844

effect of a mutation on the interaction	Variant
with no effect	F133V

Variants of: B1
Settings: with dll3_human DLL3, Q9NYJ7

effect of a mutation on the interaction	Variant
with no effect	F133V

Variants of: B1
Settings: with duox2_human DUOX2, Q9NRD8

effect of a mutation on the interaction	Variant
with no effect	F133V

Variants of: B1
Settings: with e2f2_human E2F2, Q14209

effect of a mutation on the interaction	Variant
with no effect	F133V

Variants of: B1
Settings: with e2f3_human E2F3, O00716

effect of a mutation on the interaction	Variant
with no effect	F133V

Variants of: B1
Settings: with e2f5_human E2F5, Q15329

effect of a mutation on the interaction	Variant
with no effect	F133V

Variants of: B1
Settings: with e2f6_human E2F6, O75461

effect of a mutation on the interaction	Variant
with no effect	F133V

Variants of: B1
Settings: with e2f8_human E2F8, A0AVK6

effect of a mutation on the interaction	Variant
with no effect	F133V

Variants of: B1
Settings: with if4e_human EIF4E

effect of a mutation on the interaction	Variant
with no effect	F133V

Variants of: B1
Settings: with epha7_human EPHA7, Q15375

effect of a mutation on the interaction	Variant
with no effect	F133V

Variants of: B1
Settings: with ephb1_human EPHB1, P54762

effect of a mutation on the interaction	Variant
with no effect	F133V

Variants of: B1
Settings: with erbb3_human ERBB3, P21860

effect of a mutation on the interaction	Variant
with no effect	F133V

Variants of: B1
Settings: with erbb4_human ERBB4, Q15303

effect of a mutation on the interaction	Variant
with no effect	F133V

Variants of: B1
Settings: with esr1_human ESR1, P03372

effect of a mutation on the interaction	Variant
with no effect	F133V

Variants of: B1
Settings: with etv1_human ETV1, P50549

effect of a mutation on the interaction	Variant
with no effect	F133V

Variants of: B1
Settings: with ezh1_human EZH1, Q92800

effect of a mutation on the interaction	Variant
with no effect	F133V

Variants of: B1
Settings: with ezh2_human EZH2, Q15910

effect of a mutation on the interaction	Variant
with no effect	F133V

Variants of: B1
Settings: with facd2_human FANCD2, Q9BXW9

effect of a mutation on the interaction	Variant
with no effect	F133V

Variants of: B1
Settings: with fgf19_human FGF19, O95750

effect of a mutation on the interaction	Variant
with no effect	F133V

Variants of: B1
Settings: with fgfp1_human FGFBP1, Q14512

effect of a mutation on the interaction	Variant
with no effect	F133V

Variants of: B1
Settings: with fgfr4_human FGFR4, P22455

effect of a mutation on the interaction	Variant
with no effect	F133V

Variants of: B1
Settings: with fumh_human FH

effect of a mutation on the interaction	Variant
with no effect	F133V

— IntAct's records for PubMed 35512704
